How the values were obtained:
[1] = target: the molecule itself; experiment: AUC
[2] = target: T1, H3/H4 tetramer (UniProt P84233 1-136; P62799 1-103); experiment: AUC
[3] = target: T2, H2A/H2B dimer (UniProt P06897 1-130; P02281 1-126); experiment: AUC
[4] = target: T1, H3/H4 tetramer; experiment: ITC
[5] = target: T2, H2A/H2B dimer; experiment: ITC
[6] = target: the molecule itself; experiment: crystal structure

B1: AtFKBP43 NTD (1-96) (domain or fragment, Arabidopsis thaliana, UniProt F4J9Q6 1-96, looked up)
chain: MAFWGVEVKPGKTFTLKNNEATGIRRLHLSQATLGHGTATNRSILQCNVGNKSPLLLCVLTPDKVDSCQLNLEFEETDEVIFSVIGPRSVHLTGYF
B1 was tested, and the “stoichiometry N” value [1] was 5.

B2: AtFKBP43 (1-136) (domain or fragment, Arabidopsis thaliana, UniProt F4J9Q6 1-136, looked up)
chain: MAFWGVEVKPGKTFTLKNNEATGIRRLHLSQATLGHGTATNRSILQCNVGNKSPLLLCVLTPDKVDSCQLNLEFEETDEVIFSVIGPRSVHLTGYFLGRSTGFRPNDDESESFGEDIVDTDMEKGSSDDYDYSDSF
In the case of B2, the “stoichiometry N” value [2] is reported as 1, the “stoichiometry N” value [1] is reported as 5 and the “stoichiometry N” value [3] is reported as 1. For the same binder, the Kd [4] was 610 ± 40 nM and the Kd [5] was 460 ± 30 nM.

B3: AtFKBP43 (1-164) (domain or fragment, Arabidopsis thaliana, UniProt F4J9Q6 1-164, looked up)
chain: MAFWGVEVKPGKTFTLKNNEATGIRRLHLSQATLGHGTATNRSILQCNVGNKSPLLLCVLTPDKVDSCQLNLEFEETDEVIFSVIGPRSVHLTGYFLGRSTGFRPNDDESESFGEDIVDTDMEKGSSDDYDYSDSFINDDDPAVRGSHVSSTDDDEISIKEMTA
In the case of B3, the “stoichiometry N” value [2] is reported as 1, the “stoichiometry N” value [1] is reported as 5 and the “stoichiometry N” value [3] is reported as 1. For the same binder, the Kd [4] was 18 ± 2 nM and the Kd [5] was 60 ± 6 nM.

B4: AtFKBP43 NTD (1-110) (domain or fragment, Arabidopsis thaliana, UniProt F4J9Q6 1-110, looked up)
chain: MAFWGVEVKPGKTFTLKNNEATGIRRLHLSQATLGHGTATNRSILQCNVGNKSPLLLCVLTPDKVDSCQLNLEFEETDEVIFSVIGPRSVHLTGYFLGRSTGFRPNDDES
With B4 the “stoichiometry N” value [6] was 5.

Reference: doi:10.1101/2022.04.25.489347 (bioRxiv, 2022)
